Source: article PMC9120130

Target: Human ACE2-hIgG1Fc (human) (UniProt Q9BYF1)
Assay: SPR

Human ACE2-hIgG1Fc (human), sequence (Q9BYF1 18-740): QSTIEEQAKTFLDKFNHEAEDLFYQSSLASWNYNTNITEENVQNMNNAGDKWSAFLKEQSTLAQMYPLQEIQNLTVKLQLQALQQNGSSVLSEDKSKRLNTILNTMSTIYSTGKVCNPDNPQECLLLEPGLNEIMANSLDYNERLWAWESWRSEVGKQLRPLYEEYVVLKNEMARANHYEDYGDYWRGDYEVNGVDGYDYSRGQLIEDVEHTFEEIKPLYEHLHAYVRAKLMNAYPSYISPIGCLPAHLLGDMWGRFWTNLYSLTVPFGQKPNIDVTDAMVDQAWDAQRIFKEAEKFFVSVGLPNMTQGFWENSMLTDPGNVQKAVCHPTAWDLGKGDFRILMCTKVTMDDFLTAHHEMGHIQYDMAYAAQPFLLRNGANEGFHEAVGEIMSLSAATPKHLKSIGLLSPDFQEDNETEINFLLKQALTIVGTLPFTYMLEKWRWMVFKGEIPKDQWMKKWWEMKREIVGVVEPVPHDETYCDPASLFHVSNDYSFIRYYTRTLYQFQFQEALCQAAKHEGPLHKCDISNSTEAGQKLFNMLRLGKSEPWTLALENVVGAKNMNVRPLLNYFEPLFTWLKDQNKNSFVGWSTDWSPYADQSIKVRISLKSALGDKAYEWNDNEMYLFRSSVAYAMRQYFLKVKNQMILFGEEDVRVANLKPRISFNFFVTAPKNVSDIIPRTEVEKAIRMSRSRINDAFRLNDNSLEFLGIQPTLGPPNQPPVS

Substance: Wuhan RBD
- Kd: 7.3 nM
- koff: 0.0051 s⁻¹
